Test results as given in US20230374534, “TRANSGENIC PLANT HAVING COLD RESISTANCE OVEREXPRESSING THIOREDOXIN TRX-H2 PROTEIN” (INDUSTRY-ACADEMIC COOPERATION FOUNDATION GYEONGSANG …, published 2023).

Experiments:
CBF1 = CBF1 (Arabidopsis thaliana, UniProt P93835 SEQ:1-213); assay: EMSA; 1 mM DTT (reducing), poly(dI-dC), 25 C, 30 min; binding redox-dependent; gel only in figure; settings: tags: His (pET28a, E. coli); label: biotin
Experimental: FIGS. 3A to 3D are the results of EMSAs showing the redox-dependent binding of His-CBF1 to biotin-labeled COR15a promoter fragment (oligoprobe) in the presence of 1 mM DTT (FIG. 3A), 1 mM H₂O₂ (FIG. 3B), and a Trx system comprising 5 μM Trx-h2 (FIG. 3C) or Trx-h2(C/S) (FIG. 3D) with His-MBP as a control. FIG. 3E is the schematic representation of the COR15a promoter. P1 and P2 indicate the primer binding sites for qRT-PCR. […] (FIG. 3F) or 4° C. (FIG. 3G) for 6 h.
To carry out EMSAs, a biotin-labeled oligonucleotide probe (Table 1) was processed using a lightshift™ chemiluminescent EMSA Kit (Thermo Fisher Scientific, Rockford, IL, USA). Recombinant CBF1 (5 μg) was incubated with 40 fmol of biotin-labeled probe and 20 μl of reaction mixture containing 25 ng/μl Poly (dl-dC) binding buffer at 25° C. for 30 min. The reaction products were resolved on a 6% polyacrylamide gels. Probes bound to CBF1 were transferred to charged Hybond-N membrane and detected by western blotting with anti-biotin antibody (Abcam, Cambridge, MA, USA).

MBP (control) = MBP (control) (UniProt P0AEX9 P0AEX9:27-396); assay: EMSA; His-MBP used as negative control; gel only in figure

Sequence of CBF1 (P93835 whole entry, the tested form may be a part): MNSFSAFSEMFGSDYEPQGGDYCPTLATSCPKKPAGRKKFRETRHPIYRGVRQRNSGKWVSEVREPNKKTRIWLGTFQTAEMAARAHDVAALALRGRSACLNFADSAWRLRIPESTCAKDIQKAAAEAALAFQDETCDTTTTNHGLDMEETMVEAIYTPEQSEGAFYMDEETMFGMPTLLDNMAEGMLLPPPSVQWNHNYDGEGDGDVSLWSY

B1: COR15a promoter CRT/DRE probe (-275 to -253) (dsDNA)
DNA 1: ATTTCATGGCCGACCTGCTTTTT
DNA 2: AAAAAGCAGGTCGGCCATGAAAT
CBF1
  binding result: binds
MBP (control)
  binding result: no binding
